Experimental findings from US20250340636A1 (Memorial Sloan Kettering, published 2025) are described below.

Bounds are passed on as bounds.

The target in test [1] is T1, mouse L1CAM on transiently transfected HEK293FT cells (mouse, UniProt P11627 20-1260).
T1 construct: whole, on cells; also called mouse L1CAM on cells
The experiment in a line: flow cytometry, cells transfected with mouse L1CAM.

In test [2] the target is T2, extracellular domain of human L1CAM (isoform 1) fused to a poly-histidine tag via its carboxy terminus (human, UniProt P32004 20-1120).
T2 construct: Bought (Creative Biomart); also called L1CAM-His; huL1CAM protein
The experiment in a line: BLI, His-tagged human L1CAM. The method, then:
(§1) Binding to L1CAM in Solution. Affinity to human L1CAM was measured by BLI using an Octet Red96e instrument. […] The data was prepared by reference well subtraction, and response curves were globally fit to a 1:1 Langmuir binding model.

Test [3] has as its target T3, human L1CAM on cells (human, UniProt P32004 20-1257).
T3 construct: Overexpressed on stably transfected HEK293T cells or endogenous on MCF-7 and MDA-MB-231 cells; also called HEK293T-hL1CAM
Put plainly: summary table; binding to cells with endogenous L1CAM (MDA-MB-231). The method, then:
(§2) Binding to L1CAM on Cells. […] Cells were then incubated with an AlexaFluor 647 goat anti-human Fc secondary antibody. After washing, the stained cells were analyzed by flow cytometry.
(§3) The binding curves for each antibody and cell line normalized to secondary antibody only staining (MFI ratio) are shown in FIGS. 14A-14C. EC50 values were determined by non-linear regression (Table 70). […] It is possible that differences in the conformation and oligomerization of L1CAM, depending on the surface expression level, contributed to the binding pattern. […] An avidity effect due to high levels of L1CAM surface expression may have contributed to the strong binding observed in this experiment.

In test [4] the target is T3, human L1CAM on cells. Put plainly: summary table; binding to cells with endogenous L1CAM (MCF-7). The method, then:
as §2, §3

The target of test [5] is T3, human L1CAM on cells. Put plainly: flow cytometry, MCF-7 cells, AlexaFluor 647 anti-human Fc secondary. As for the experimental part: as §2, §3
In test [6] the target is T4, soluble mouse L1CAM (monomer), His-tagged (mouse, UniProt P11627 20-1123, limits assumed).
T4 construct: read as mouse
Put plainly: BLI (Octet Red96e), His-tagged L1CAM on Ni-NTA biosensors, mAb as analyte. The method, then: Cross-reactivity to Mouse L1CAM. Affinity to mouse L1CAM was measured by BLI using an Octet Red96e instrument. […] The data was prepared by reference well subtraction, and response curves were globally fit to a 1:1 Langmuir binding model.
In general terms: BLI is a label-free optical method that tracks binding on a fibre tip over time.

Test [7] has as its target T3, human L1CAM on cells. The experiment in a line: flow cytometry, HEK293T-hL1CAM cells, AlexaFluor 647 anti-human Fc secondary. The method, then:
as §2, §3
In general terms: A flow cytometer gives signals particle by particle.

In test [8] the target is T5, human CHL-1 (residues 25-1096 with a C-terminal 10xHis tag) (human, UniProt O00533 25-1096).
T5 construct: range 25-1096; also called L1CAM-2; L1CAM2
T5 sequence: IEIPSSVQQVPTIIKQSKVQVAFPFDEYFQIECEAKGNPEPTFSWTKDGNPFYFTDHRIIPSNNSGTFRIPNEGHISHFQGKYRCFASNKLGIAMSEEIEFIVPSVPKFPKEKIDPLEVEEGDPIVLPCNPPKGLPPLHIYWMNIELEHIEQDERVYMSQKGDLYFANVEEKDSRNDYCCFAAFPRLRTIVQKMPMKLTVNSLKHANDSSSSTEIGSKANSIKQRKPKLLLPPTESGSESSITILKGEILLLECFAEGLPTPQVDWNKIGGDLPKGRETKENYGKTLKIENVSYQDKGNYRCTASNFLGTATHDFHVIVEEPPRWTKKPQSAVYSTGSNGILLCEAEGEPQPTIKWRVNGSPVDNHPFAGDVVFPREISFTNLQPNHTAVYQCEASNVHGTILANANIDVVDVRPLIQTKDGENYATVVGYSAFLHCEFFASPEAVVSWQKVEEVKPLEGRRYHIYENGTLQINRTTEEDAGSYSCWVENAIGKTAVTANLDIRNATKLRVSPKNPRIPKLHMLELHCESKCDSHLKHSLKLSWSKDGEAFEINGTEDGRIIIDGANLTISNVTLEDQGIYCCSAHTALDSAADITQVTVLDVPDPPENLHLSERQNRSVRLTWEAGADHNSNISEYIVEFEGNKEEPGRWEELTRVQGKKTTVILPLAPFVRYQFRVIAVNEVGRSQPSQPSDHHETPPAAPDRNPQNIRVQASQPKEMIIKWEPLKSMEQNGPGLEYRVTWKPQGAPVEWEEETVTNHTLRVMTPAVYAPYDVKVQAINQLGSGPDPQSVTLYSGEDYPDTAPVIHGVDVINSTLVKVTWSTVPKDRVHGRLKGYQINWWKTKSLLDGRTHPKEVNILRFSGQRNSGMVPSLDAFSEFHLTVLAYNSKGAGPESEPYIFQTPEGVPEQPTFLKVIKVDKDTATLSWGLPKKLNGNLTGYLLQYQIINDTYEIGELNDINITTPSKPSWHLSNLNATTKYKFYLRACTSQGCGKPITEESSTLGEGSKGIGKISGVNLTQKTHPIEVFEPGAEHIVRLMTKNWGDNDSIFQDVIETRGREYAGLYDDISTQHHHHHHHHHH
The experiment in a line: ELISA, plates coated with human CHL-1. An excerpt: Selectivity. […] These proteins are other members of the L1 family of cell adhesion proteins and have between 49% and 55% sequence similarity with L1CAM in the extracellular portion. […] Positive control antibodies were included for each homolog. […] Epitope. The extracellular portion of L1CAM contains six immunoglobulin-like (Ig) domains and five fibronectin type III (FN) domains. To narrow down the binding region of the development candidate mAbs, truncated versions of human L1CAM protein (Ig domain, residues 21-605; FN domain, residues 606-1116; each with a C-terminal 6×His tag) were recombinantly produced, followed by a BLI experiment to test binding at 50 and 100 nM. […] 6×His tag is set forth in SEQ ID NO: 316.

The target in test [9] is T2, extracellular domain of human L1CAM …. The experiment in a line: BLI (Octet Red96e), His-tagged human L1CAM on Ni-NTA biosensors, mAb as analyte, 1:1 fit. As for the experimental part:
as §1

In test [10] the target is T6, soluble cynomolgus monkey L1CAM, His-tagged, monomeric (cynomolgus monkey, UniProt A0A2K5URB5 20-1120).
T6 construct: also called cyL1CAM protein; cynomolgus L1CAM-His
The experiment in a line: BLI (Octet Red96e), His-tagged cynomolgus L1CAM on Ni-NTA biosensors, mAb as analyte, 1:1 fit. The method, then: (§4) Cross-reactivity to Cynomolgus Monkey L1CAM. Affinity to cynomolgus L1CAM was measured by BLI using an Octet Red96e instrument. […] The data was prepared by reference well subtraction, and response curves were globally fit to a 1:1 Langmuir binding model.

Test [11] concerns the target T2, extracellular domain of human L1CAM …. The experiment in a line: summary table; binding to soluble human L1CAM (monomer). As for the experimental part:
as §1

For test [12], the target named is T6, soluble cynomolgus monkey L1CAM, …. The experiment in a line: summary table; soluble cynomolgus monkey L1CAM (monomer). The method, then: as §4
Test [13] concerns the target T3, human L1CAM on cells. The experiment in a line: summary table; binding to cells overexpressing human L1CAM (HEK293T). The method, then: as §2, §3
The target of test [14] is T6, soluble cynomolgus monkey L1CAM, …. Put plainly: BLI, cynomolgus against human L1CAM-His. As for the experimental part:
as §4

Test [15] deals with T3, human L1CAM on cells. Put plainly: flow cytometry, MDA-MB-231 cells, AlexaFluor 647 anti-human Fc secondary. The method, then:
as §2, §3

T3 sequence (P32004 20-1257): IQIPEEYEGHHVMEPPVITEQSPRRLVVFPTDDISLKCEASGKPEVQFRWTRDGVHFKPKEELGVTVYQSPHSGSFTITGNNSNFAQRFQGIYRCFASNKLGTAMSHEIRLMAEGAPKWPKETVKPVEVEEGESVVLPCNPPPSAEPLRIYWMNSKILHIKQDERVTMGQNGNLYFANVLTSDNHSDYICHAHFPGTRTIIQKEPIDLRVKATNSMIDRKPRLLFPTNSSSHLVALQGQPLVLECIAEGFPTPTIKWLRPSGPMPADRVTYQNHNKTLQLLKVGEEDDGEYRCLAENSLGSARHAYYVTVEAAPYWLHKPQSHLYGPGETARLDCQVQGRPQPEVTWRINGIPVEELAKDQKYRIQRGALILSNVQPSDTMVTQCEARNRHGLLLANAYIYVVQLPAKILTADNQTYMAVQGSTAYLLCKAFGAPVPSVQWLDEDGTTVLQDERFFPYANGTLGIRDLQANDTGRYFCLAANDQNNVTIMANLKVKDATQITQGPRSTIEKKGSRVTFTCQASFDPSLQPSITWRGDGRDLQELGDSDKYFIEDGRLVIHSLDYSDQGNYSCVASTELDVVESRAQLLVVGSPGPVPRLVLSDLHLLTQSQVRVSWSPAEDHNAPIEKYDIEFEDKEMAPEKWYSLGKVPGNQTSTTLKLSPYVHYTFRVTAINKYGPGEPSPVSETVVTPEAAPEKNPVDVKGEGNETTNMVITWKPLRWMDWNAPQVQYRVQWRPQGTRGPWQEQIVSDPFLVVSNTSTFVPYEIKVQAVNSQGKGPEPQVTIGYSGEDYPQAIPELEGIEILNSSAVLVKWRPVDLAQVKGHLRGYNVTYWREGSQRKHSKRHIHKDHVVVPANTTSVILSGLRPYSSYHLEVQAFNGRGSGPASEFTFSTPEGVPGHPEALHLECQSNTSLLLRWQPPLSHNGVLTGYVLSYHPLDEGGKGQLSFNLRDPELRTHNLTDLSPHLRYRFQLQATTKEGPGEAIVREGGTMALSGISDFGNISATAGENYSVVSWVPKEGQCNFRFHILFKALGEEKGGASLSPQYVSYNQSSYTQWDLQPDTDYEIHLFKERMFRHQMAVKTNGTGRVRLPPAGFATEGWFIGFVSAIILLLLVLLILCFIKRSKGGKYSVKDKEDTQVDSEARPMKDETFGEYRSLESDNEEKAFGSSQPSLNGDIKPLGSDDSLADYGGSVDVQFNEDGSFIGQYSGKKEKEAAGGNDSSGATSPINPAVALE
T2 sequence (P32004 20-1120): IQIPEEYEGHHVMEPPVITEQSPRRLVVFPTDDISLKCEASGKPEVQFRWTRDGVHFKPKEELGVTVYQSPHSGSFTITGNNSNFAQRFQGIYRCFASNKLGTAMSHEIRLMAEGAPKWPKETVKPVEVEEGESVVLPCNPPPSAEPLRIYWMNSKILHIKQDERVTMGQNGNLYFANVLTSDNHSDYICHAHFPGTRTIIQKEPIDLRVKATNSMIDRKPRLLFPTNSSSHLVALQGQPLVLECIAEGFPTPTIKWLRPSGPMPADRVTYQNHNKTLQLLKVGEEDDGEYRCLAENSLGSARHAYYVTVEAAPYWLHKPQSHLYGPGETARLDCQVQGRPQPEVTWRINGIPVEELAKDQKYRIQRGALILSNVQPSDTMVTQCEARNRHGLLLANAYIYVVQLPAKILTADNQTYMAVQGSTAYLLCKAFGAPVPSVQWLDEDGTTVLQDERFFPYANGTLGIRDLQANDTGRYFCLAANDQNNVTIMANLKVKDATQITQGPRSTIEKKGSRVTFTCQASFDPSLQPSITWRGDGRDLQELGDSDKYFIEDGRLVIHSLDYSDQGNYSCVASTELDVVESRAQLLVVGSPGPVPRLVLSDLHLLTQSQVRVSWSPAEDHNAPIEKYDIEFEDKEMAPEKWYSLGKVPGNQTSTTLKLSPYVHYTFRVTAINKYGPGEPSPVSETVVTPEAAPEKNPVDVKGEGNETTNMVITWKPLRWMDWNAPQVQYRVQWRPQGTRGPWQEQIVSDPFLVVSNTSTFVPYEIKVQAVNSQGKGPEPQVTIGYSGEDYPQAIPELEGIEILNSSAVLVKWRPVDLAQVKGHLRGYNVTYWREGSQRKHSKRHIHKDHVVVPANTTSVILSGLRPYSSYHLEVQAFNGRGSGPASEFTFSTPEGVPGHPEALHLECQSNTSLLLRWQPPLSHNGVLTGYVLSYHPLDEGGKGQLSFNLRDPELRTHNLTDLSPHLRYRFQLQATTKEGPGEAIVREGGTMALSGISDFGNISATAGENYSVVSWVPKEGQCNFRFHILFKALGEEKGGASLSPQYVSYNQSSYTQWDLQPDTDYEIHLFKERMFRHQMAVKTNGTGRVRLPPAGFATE
T1 sequence (P11627 20-1260): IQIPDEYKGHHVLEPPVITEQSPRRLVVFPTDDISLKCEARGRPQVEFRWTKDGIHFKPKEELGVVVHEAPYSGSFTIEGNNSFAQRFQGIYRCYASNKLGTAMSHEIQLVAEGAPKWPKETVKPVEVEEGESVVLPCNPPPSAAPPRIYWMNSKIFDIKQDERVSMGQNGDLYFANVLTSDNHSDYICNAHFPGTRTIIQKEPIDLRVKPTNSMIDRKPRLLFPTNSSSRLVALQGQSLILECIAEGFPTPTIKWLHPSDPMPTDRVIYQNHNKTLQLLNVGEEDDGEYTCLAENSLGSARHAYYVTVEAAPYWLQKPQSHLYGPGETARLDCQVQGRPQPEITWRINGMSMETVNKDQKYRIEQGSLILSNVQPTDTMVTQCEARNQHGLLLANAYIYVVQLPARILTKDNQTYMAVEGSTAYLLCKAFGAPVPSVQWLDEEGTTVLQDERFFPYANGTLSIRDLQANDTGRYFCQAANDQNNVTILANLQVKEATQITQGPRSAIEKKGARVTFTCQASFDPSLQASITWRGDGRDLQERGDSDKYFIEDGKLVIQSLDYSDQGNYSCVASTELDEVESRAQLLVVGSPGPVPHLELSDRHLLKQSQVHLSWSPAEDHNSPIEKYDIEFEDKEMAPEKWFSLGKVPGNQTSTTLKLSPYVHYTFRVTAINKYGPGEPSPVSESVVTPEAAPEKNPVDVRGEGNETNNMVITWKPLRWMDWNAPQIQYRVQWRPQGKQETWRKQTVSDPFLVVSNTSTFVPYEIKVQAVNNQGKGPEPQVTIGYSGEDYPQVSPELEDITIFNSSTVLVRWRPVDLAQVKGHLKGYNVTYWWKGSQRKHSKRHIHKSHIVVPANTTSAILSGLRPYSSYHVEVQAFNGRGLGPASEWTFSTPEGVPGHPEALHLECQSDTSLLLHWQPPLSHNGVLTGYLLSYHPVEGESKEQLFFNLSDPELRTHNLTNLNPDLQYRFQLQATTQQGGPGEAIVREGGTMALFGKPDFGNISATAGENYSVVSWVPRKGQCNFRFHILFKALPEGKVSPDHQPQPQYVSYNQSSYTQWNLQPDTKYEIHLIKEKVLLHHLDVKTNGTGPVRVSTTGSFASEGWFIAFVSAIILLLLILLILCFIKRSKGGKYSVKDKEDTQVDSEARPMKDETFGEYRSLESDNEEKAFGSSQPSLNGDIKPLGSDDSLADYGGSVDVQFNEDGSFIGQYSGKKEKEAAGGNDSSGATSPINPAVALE
T4 sequence (P11627 20-1123 limits assumed): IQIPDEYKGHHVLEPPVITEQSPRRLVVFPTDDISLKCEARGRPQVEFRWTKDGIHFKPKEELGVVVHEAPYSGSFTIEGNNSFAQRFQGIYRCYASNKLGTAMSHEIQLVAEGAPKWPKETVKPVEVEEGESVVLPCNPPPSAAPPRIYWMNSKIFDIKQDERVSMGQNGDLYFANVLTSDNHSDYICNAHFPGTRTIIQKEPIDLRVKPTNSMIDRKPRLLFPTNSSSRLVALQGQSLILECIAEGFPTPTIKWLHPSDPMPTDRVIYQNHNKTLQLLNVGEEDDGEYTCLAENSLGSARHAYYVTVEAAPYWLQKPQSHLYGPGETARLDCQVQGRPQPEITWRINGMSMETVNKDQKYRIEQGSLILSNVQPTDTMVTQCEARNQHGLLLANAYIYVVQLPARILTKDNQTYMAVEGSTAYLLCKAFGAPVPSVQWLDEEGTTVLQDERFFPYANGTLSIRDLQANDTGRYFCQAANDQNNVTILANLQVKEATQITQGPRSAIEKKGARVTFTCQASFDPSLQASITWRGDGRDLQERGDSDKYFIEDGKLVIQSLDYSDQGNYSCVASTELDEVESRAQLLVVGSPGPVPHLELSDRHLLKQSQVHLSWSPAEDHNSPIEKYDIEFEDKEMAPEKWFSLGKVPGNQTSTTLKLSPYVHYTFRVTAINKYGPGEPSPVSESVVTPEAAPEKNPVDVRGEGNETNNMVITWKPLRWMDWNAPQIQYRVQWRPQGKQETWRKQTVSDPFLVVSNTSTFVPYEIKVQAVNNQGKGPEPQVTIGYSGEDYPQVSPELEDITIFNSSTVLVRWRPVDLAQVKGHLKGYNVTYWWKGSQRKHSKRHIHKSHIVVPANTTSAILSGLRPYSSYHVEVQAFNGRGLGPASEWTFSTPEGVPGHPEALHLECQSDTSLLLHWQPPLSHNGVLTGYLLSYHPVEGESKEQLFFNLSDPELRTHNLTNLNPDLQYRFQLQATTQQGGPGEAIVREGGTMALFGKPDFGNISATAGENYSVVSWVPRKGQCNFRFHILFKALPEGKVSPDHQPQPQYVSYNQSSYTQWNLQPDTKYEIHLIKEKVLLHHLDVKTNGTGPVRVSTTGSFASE

B1: TDI-Y-004 (antibody, human IgG1, kappa, V domains shown)
VH: QVQLVQSGAEVKKPGSSVKVSCKASGYTFTNYYIHWVRQAPGQGLEWMGKIGPGSGSPYYQGMFKDRVTITADESTSTAYMELSSLRSEDTAVYYCARWLLPFDYWGQGTLVTVSS
VL: EIVLTQSPGTLSLSPGERATLSCRASSSVNYMHWYQQKPGQAPRLLIYATSILASGIPDRFSGSGSGTDYTLTISRLEPEDFAVYYCQQFSSDPLTFGGGTKVEIKR
notes: Human IgG1, kappa; also called humanized 143G03 (N61Q) mAb; hz143G03 (N61Q)
On to B1, for which the binding result was “no binding” in [1], “no binding (tested: dilution series starting at 50 nM)” in test [6] and “no binding (tested: 1 µM)” in [8]. In test [2], the “fold difference in KD against TDI-Y-005” value was roughly 10 fold. Moreover, the concentration giving a half-maximal response (EC50) is 2.5 nM in test [3]; 1.3 nM in [4]; 1.3 nM in test [5]; 2.2 nM in [7]; 2.2 nM in test [13]; 2.5 nM in test [15]. Besides, the equilibrium dissociation constant (Kd) in test [9] was 0.35 nM; in test [10], 0.3 nM; in test [11], 0.35 nM; in [12], 0.3 nM. For the same molecule, the off-rate constant (koff) in [9] was found to be 9.5e-05 s⁻¹; in [10] it was 4.7e-05 s⁻¹; in test [11] it was 9.5e-05 s⁻¹; in test [12], 4.7e-05 s⁻¹. Moreover, the kon in test [9] was 270000 M⁻¹ s⁻¹; in [10], 160000 M⁻¹ s⁻¹; in [11] it was 270000 M⁻¹ s⁻¹; in test [12], 160000 M⁻¹ s⁻¹. In test [14], the “fold difference of KD against human L1CAM” value is no more than 1.2 fold.

Broadly, the EC50 is the concentration giving half of the maximal effect. The term Kd denotes the concentration at which binding is half-saturated. A word on the koff: it is a measure of how fast the partners let go of each other. A word on the kon: it is the second-order rate constant of association.
